Experimental data taken from FireProtDB (doi:10.1002/prot.340090203).
Several values for one entry are separate records, joined by “and”; a condition that tells them apart may be missing. Identical values can stand only once.

B1: Tryptophan synthase alpha chain, P0A877 (parent)
chain: MERYESLFAQLKERKEGAFVPFVTLGDPGIEQSLKIIDTLIEAGADALELGIPFSDPLADGPTIQNATLRAFAAGVTPAQCFEMLALIRQKHPTIPIGLLMYANLVFNKGIDEFYAQCEKVGVDSVLVADVPVEESAPFRQAALRHNVAPIFICPPNADDDLLRQIASYGRGYTYLLSRAGVTGAENRAALPLNHLVAKLKEYNAAPPLQGFGISAPDQVKAAIDAGAAGAISGSAIVKIIEQHINEPEKMLAALKVFVQPMKAATRS

Variants of: B1
Details: Escherichia coli (strain K12), reversible: yes, structure 1WQ5, whole UniProt chain shown
[1] = pH 9, 54.1 °C, Thermal, DSC, Sodium tetraborate 1 mM, EDTA 1 mM
[2] = pH 9, Thermal, DSC, Sodium tetraborate 1 mM
[3] = pH 7, 25 °C, GdnHCl, CD, Potassium phosphate 10 mM
[4] = pH 7, 25 °C, GdnHCl, CD, Potassium phosphate 10 mM, transition: 3

Variant | ddG of mutation (higher = less stable) [1] [kcal/mol] | heat capacity change of unfolding [1] [kcal/mol/K] | Tm [2] [°C] | change of melting temperature, mutant - wild type (higher = more stable) [2] [°C] | heat capacity change of unfolding [2] [kcal/mol/K] | unfolding enthalpy (calorimetric) [2] [kcal/mol] | ddG of mutation (higher = less stable) [3] [kcal/mol] | unfolding free energy [3] [kcal/mol] | ddG of mutation (higher = less stable) [4] [kcal/mol] | unfolding free energy [4]
P96A | 2 | 3.6 | 47.8 | -6.3 | 3.6 | 113 | – | – | – | –
P207A | – | – | 47.4 | -6.7 | 4.9 | 95 | 1.8 | 7 | 2.2 | 2.4 kcal/mol
P62A | 0.52 | 4.9 | – | – | – | – | – | – | – | –
P57A | 0.04 | 4.7 | 54 | -0.1 | 4.7 | 121 | – | – | – | –
P132A | 0.92 | 4.8 | 51.5 | -2.6 | 4.8 | 121 | – | – | – | –
P132G | 0.78 | 5.1 | 51.8 | -2.3 | 5.1 | 117 | 0.6 | 8.2 | – | 3.6 kcal/mol and 4.6 kcal/mol
P28A | – | – | – | – | – | – | 2.5 | 6.3 | – | 2.2 kcal/mol and 4.1 kcal/mol
P28G | – | – | – | – | – | – | 1.6 | 7.2 | – | 2.3 kcal/mol and 4.9 kcal/mol
